Data from patent US20220136027.

Biological target: T1, pentapeptide Gln-Pro-Gln-Gln-Pro
T1 chain: QPQQP

B1: FvePro4 (protein)
chain: ASRLSSRRWASSENMTKLDTTSRLNRLRGLMKERNVQIYIVPSEDSHSSEYIADCDARRAYISGFTGSAGCAVVTLESAALATDGRYFNQATSQLDSNWTLLKQGLQDVPTWQDWSAEQSSGGKNVGVDPTLISGSTAKNLAEKIRKNGGAELLPVDGNLVDLVWGDERPSRPSEQVIIQPDELAGESVLNKLTKVRQELEKKHSPGFLVSMLDEIAWLFNLRGNDIPYNPVFFAYATVTPDAAKLYIDEAKLDDKCRSHLTSNKVDIKPYETIFDDAQALHAAHAAKSKSGDKVPTGNFLISNKGSWALKRALGGDSSVDEIRSLIGDAKAIKTEAELKGMRDCHVRDGAALIQYFAWLEDQLVNKKATLDEVQAADKLEELRKVKKDFVGLSFPTISSTGANAAIIHYGPERGNCATIDPEAIYLCDSGAQYRDGTTDTTRTLHFGKPTEAEREAYTLVLKGHISLDQAIFPKGTTGFALDSLARQHLWKNGLDYRHGTGHGVGSFLNVHEGPIGIGTRVQYAEVALAPGNVLSNEPGYYEDGKYGIRIENMVLVKEVKTKHSFGDKPFLGFEYVTLVPYCRNLIDTTLLTSEEKEWLNTYNAKVLEKTQEYFEGDDVTLAWLKRETQHVE
- pentapeptide hydrolysis (ninhydrin reaction, A570): all purified proteases are capable of hydrolyzing pentapeptide Gln-Pro-Gln-Gln-Pro
